Assay results as given in patent US20150266975, “RNA-SPECIFIC BINDING ANTIBODY” (Korea Advanced Institute of Science and Technology, published 2015).

Biological target: T1, MabBC200-A3 (Homo sapiens)
T1 chain 1: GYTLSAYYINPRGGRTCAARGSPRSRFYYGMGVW
T1 chain 2: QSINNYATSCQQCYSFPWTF
Test: filter; room temperature
Settings: hairpin with internal loops

B1: RNA (51-120) (ssRNA)
RNA: GGGAGGCGGGAGGAUAGCUUGAGCCCAGGAGUUCGAGACCUGCCUGGGCAAUAUAGCGAGACCCCGUUCUCCC
For B1, the Kd was about 10 nM.
